Publication PMC12196469, “Synthesis and Characterization of Transferrin Receptor-Targeted Peptide Combination SN-38 and Rucaparib Conjugate for the Treatment of Glioblastoma” (Pharmaceutics, 2025)

Experiments:
human liver cathepsin B = molecular target: T1, human liver cathepsin B (Homo sapiens, UniProt P07858); assay: In vitro cleavage of T7-SN-38-rucaparib by exogenous cathepsin B (RP-HPLC); assay type: in vitro ADME; conditions: sodium acetate buffer with EDTA and DTT, pH 6.0, 37 °C, conjugate 210 µM, n = 3
T1 construct: human liver cathepsin B stock (0.47 mg/mL, 324 U/mg, Merck Millipore); purchased Merck Millipore; host or cells: human liver (tissue-derived, as the product name says)
Procedure: The cleavage profile of T7-SN-38-rucaparib was evaluated by following a published method. Using this method, 11 μL of human liver cathepsin B stock (0.47 mg/mL, 324 U/mg, Merck Millipore) was activated in 27.2 μL of activation buffer (30 mM DTT, 15 mM EDTA in H2O) for 15 min. This mixture was added to 4.9 mL of reaction buffer (150 mM sodium acetate buffer, 12 mM EDTA, 24 mM DTT in H2O, pH 6.0). Cleavage was initiated by adding the cathepsin B solution to the T7-SN-38-rucaparib stock solution (8) in DMSO (final concentration 210 µM). The reaction was allowed to proceed at 37 °C, and samples were taken and analyzed by RP-HPLC at predetermined intervals (0–24 h). Changes in peak areas of the pure drugs and conjugate at their characteristic retention times to observe the disappearance of T7-SN-38-rucaparib and the appearance of free SN-38 and rucaparib over a 24 h period were monitored.

[1] = XTT cytotoxicity on U87MG cells
Procedure: U87MG cells (10,000 cells per well) were seeded in 96-well plates and allowed to attach for 24 h. […] To evaluate cytotoxicity, XTT solution was added to each well per manufacturer protocols at 24 and 72 h after treatment. Following a 3-h incubation period, the absorbance of each well was measured at 450 nm using a Biotek ELx808 microplate reader (Lonza, Basel, Switzerland). Average absorbance values of the cells treated with different concentrations of test agents were normalized to those of the untreated cell controls. GraphPad Prism 10 was used to plot percent cell viability.
U87MG cells (10,000/well), seeded in 96-well plates, were allowed to attach for 24 h. The cells, incubated at 37 °C, were then treated with rucaparib solution at concentrations ranging from 5 nM to 160 nM. To evaluate cytotoxicity, XTT solution was added to each well at 24 and 72 h after treatment per manufacturer protocol. Following a 3-h incubation period, the absorbance of each well was measured at 450 nm using a Biotek ELx808 microplate reader (Lonza). The average absorbance of the cells treated with different concentrations of rucaparib were normalized to those of untreated cell controls. […]
IC50 values were calculated by concentration-response curve fitting using Microsoft Excel 16.77 (Microsoft Corp). […] Differences between groups were determined by ANOVA, with a p-value < 0.05 deemed statistically significant.

[2] = Control incubation of conjugate in enzyme-free buffer pH 6.0; assay type: in vitro ADME; conditions: pH 6.0, no cathepsin B, RP-HPLC, over 24 h
Procedure: The cleavage profile of T7-SN-38-rucaparib was evaluated by following a published method. […] This mixture was added to 4.9 mL of reaction buffer (150 mM sodium acetate buffer, 12 mM EDTA, 24 mM DTT in H2O, pH 6.0). […] The reaction was allowed to proceed at 37 °C, and samples were taken and analyzed by RP-HPLC at predetermined intervals (0–24 h). Changes in peak areas of the pure drugs and conjugate at their characteristic retention times to observe the disappearance of T7-SN-38-rucaparib and the appearance of free SN-38 and rucaparib over a 24 h period were monitored.

[3] = tested on: U87MG cells with blocked transferrin receptors; assay: T7 competition assay with or without exogenous cathepsin B on TfR-blocked U87MG cells; conditions: 20 nM drug equivalents, exogenous cathepsin B added, 72 h, XTT, n = 4
Procedure: In these studies, blocking was done as reported for the transferrin receptor blocking studies above. […] In an additional step, exogenous cathepsin B was added to the treated wells. In a parallel experiment, cells were treated with the same test agents at the same concentrations but without exogenous cathepsin B. XTT assays were conducted at 72 h following the manufacturer’s protocol for cytotoxicity. Percent cell viability was calculated, and the data were plotted using GraphPad Prism 10.

[4] = XTT cytotoxicity on HEK-293 cells
Procedure: (§1) HEK-293 cells (15,000/well), seeded in 96-well plates, were allowed to attach for 24 h. […] To evaluate cytotoxicity, XTT solution was added to each well at 24 and 72 h after treatment per manufacturer protocol. Following a 3-h incubation period, the absorbance of each well was measured at 450 nm using a Biotek ELx808 microplate reader (Lonza). Average absorbance values of the cells treated with different concentrations of test agents were normalized to those of untreated cell controls, and percent cell viability was plotted using GraphPad Prism 10.
(§2) IC50 values were calculated by concentration-response curve fitting using Microsoft Excel 16.77 (Microsoft Corp). Data represent mean ± standard deviation (SD) unless otherwise indicated. Differences between groups were determined by ANOVA, with a p-value < 0.05 deemed statistically significant.

HEK-293 cells = assay: XTT cytotoxicity on HEK-293 cells; conditions: HEK-293 cells, 24 h, p < 0.05, n = 4
Procedure: as §1, §2

CCc1c2c(nc3ccc(OCc4ccc(NC(=O)[C@H](C)NC(=O)[C@@H](NC(=O)CCCCCNC(=O)COCCOCCOCCNC(=O)CCCCC(=O)N5Cc6ccccc6-c6c(nnn6CCOCCOCCOCCOCCC(=O)N[C@@H](CSC6CC(=O)N(CCC(=O)NCCOCCOCCOCCOCCC(=O)NCCCCCC(=O)N[C@H](C(=O)N[C@@H](C)C(=O)Nc7ccc(COC(=O)N(C)Cc8ccc(-c9[nH]c%10cc(F)cc%11c%10c9CCNC%11=O)cc8)cc7)C(C)C)C6=O)C(=O)NCCOCCOCCOCC(=O)N[C@@H](Cc6c[nH]cn6)C(=O)N[C@@H](C)C(=O)N[C@H](C(=O)N[C@@H](Cc6ccc(O)cc6)C(=O)N6CCC[C@H]6C(=O)N[C@@H](CCCNC(=N)N)C(=O)N[C@@H](Cc6c[nH]cn6)C(=O)O)[C@@H](C)CC)-c6ccccc65)C(C)C)cc4)cc13)-c1cc3c(c(=O)n1C2)COC(=O)[C@]3(O)CC (stereo partly drawn) [T7-SN-38-rucaparib]
Percent Cleaved (human liver cathepsin B; time 1 h): 17.8% | Percent Cleaved (human liver cathepsin B; time 4 h): 43.8% | Percent Cleaved (human liver cathepsin B; time 8 h): 61.6% | Percent Cleaved (human liver cathepsin B; time 24 h): 87.3% | IC50 [1]: 22.3 nM | release of free drugs in enzyme-free buffer [2]: < 10% | cytotoxicity with exogenous cathepsin B [3]: comparable cytotoxicity to the cells treated with free drugs | IC50 [4]: 116 nM | cytotoxicity, conjugate versus free drugs (HEK-293 cells): significantly lower cytotoxicity compared to free SN-38-rucaparib
